Measured values as given in patent US10563220B2, “Compositions and methods for efficient targeting of transgenes” (priority 2015, dated 2020).

Legend:
[1] = test system: transgenic Brassica napus plants; test: Dicamba tolerance in R0 Brassica napus, greenhouse; settings: R0 plants with one copy with vector backbone or two copies, tolerant = injury 20% or less, 21 days
Description: Brassica napus variety 65037 Restorer line was used for Agrobacterium-mediated transformation and R0 plants were grown in the greenhouse.
Dicamba tolerance was assessed using R0 plants with one copy of transgene with vector backbone or two copies of transgene. Dicamba tolerance was designated as dicamba injury of 20% or less under greenhouse conditions.
Dicamba tolerance was assessed on R0 plants with a one copy of the transgene. Plants were sprayed in the greenhouse with dicamba (Clarity) at 1 lb ae/acre (2× rate), and dicamba tolerance was determined 14 to 21 days later.

[2] = test system: negative control hybrid maize; test: PPO herbicide pre-emergence injury, negative control maize; format: in vivo; settings: 20 days after treatment
Description: (§1) Transgenic F1 hybrid maize expressing APG6 operably linked to PPO H_N10 was assessed for tolerance to different seven different PPO herbicides: S-3100, Fomesafen, Acifluorfen, Lactofen, Flumioxazin, Sulfentrazone, and Saflufenacil. Pooled seed representing 5 unique events was planted in pots in a greenhouse along with hybrid maize seed as a negative control.
(§2) To test for pre-emergence herbicide tolerance, PPO herbicides were applied individually at one of two rates with six reps per treatment as follows: S-3100 (80 or 160 g ai/ha), fomesafen (Reflex®, 840 or 1680 g ai/ha), flumioxazin (Valor® SX, 210 or 420 g ai/ha), sulfentrazone (Spartan® 4L, 840 or 1680 g ai/ha), and saflufenacil (Sharpen®, 200 or 400 g ai/ha). Plants were rated for percentage of crop injury at 20 days after treatment, and maize seed was included as a negative control. […] Negative control maize plants had injury ratings ranging from 17.5% to 94.2%, with the exception of Saflufenacil, which is expected since this herbicide is marketed for used in conventional maize plants. Data are presented in Table 15 with standard error indicated as +/−.

[3] = test system: transgenic F1 hybrid maize expressing APG6 operably linked to PPO H_N10; test: PPO herbicide pre-emergence injury, maize with APG6-PPO H_N10; format: in vivo; settings: 20 days after treatment
Description: as §1, §2

[4] = test system: transgenic F1 hybrid maize plants; test: F1 hybrid maize field trial of dicamba injury and yield; format: in vivo
Description: Dicamba tolerance was evaluated in a field trial for the transgenic F1 hybrid plants. The field trial included four treatments at two locations with two replications each. The four treatments were: (1) dicamba (Clarity®) applied at 2 lbs ae/acre (4×) at V2 followed by V4 followed by V8; (2) dicamba applied at 4 lbs at/acre (8×) at V2 followed by V4 followed by V8; (3) dicamba applied at 8 lbs at/acre (16×) at V2 followed by V4 followed by V8; and (4) dicamba applied at 16 lbs at/acre (32×) at V2 followed by V4 followed by V8. Crop injury was rated ten days after treatment and measured as crop injury percent per V-stage (CIPV2, CIPV4, or CIPV8). At the end of the season, grain was harvested and yield measured as bushels/acre. For both CIPV ratings and yield the least significant difference (LSD) at probability of 5% (p=0.05) was calculated.

[5] = test system: transgenic Brassica napus plants; test: Dicamba tolerance in R1 Brassica napus, greenhouse, three sprays; format: in vivo; settings: dicamba 2 lb ae/acre at planting, 1 lb ae/acre at V3, 1 lb ae/acre at first flower
Excerpt: Plants were sprayed with 2 lb ae/acre dicamba (4×) on the day of planting, followed by 1 lb ae/acre dicamba (2×) dicamba at V3 stage, and 1 lb ae/acre dicamba (2×) dicamba at first flower (defined as >90% of plants having bolted and about 25% having at least one open flower). Injury ratings were taken seven days after each spray and expressed as percent injury compared to sprayed controls. For plants containing APG6+DMO, there were 9 progeny total from 2 events with dicamba injury ratings of ≤20% at each of the three rating periods. For plants containing RbcS+DMO, there were 77 plants across 16 events with dicamba tolerance of less than 20% at each of the three rating periods.

[6] = test system: R1 transgenic soybean plants; test: R1 soybean greenhouse dicamba injury; settings: dicamba 1120 g ai/ha at V4; rated 10 days after treatment; DMO SEQ ID NO:18
Description: Transgenic soybean plants were generated with two DNA constructs that were identical except for the APG6 CTP. The first DNA construct had APG6 (SEQ ID NO:1) operably linked to DMO (SEQ ID NO:18). The second DNA construct had the optimized APG6 (SEQ ID NO:2) operably linked to DMO (SEQ ID NO:18). Each DNA construct was used to transform A3555 soybean by Agrobacterium mediated transformation methods. Following transformation, R0 transgenic plants containing a single copy of the transgene were identified by PCR assay. Single-copy R0 plants were grown in greenhouse, and R1 seed was harvested. Ten R1 seeds per event for 4 events generated using each of the two DNA constructs and AG3555 seed was planted for evaluation of crop tolerance to post-emergence dicamba treatment under standard greenhouse growth conditions. Dicamba (Clarity) was applied at the V4 stage at 1120 g ai/ha. Crop injury ratings were taken 10 days after the treatment.

[7] = test system: R1 transgenic cotton plants; test: R1 cotton greenhouse dicamba injury; settings: dicamba 1120 g ai/ha at V4; rated 9 days after treatment; DMO SEQ ID NO:18
Description: Ten R1 seeds per event from 10 events for each construct and seed from DP393 cotton was planted to evaluate crop tolerance to post-emergence application of dicamba. Dicamba (Clarity) was applied at the V4 stage at 1120 g ai/ha. Crop injury percent ratings were taken 9 days after the treatment.

[8] = test system: transgenic R1 soybean plants; test: PPO herbicide testing of R1 soybean (S-3100, greenhouse); settings: for Injury V4 stage / Injury R1 stage: ten days after treatment
Description: Regenerated R0 transgenic plantlets were grown in the greenhouse, selfed, and R1 seed was collected. Transgenic R1 plants were sprayed in the greenhouse with one of three herbicide treatments applied at V4 and R1: (1) 5 grams ai/ha S-3100, (2) 10 grams ai/ha S-3100, or (3) 30 grams ai/ha S-3100. Crop injury ratings were assessed at ten days after treatment.

[9] = test system: R0 transgenic cotton plants; test: S-3100 tolerance of R0 transgenic cotton, greenhouse; settings: 20 g ai/ha S-3100 at V2, three days after treatment
Description: Regenerated R0 transgenic plantlets were grown in the greenhouse, and leaf samples taken from the resulting R0 plants were analyzed by PCR to identify plants containing a single copy of an event. Transgenic single-copy R0 plants, each representing a unique event, were sprayed in the greenhouse with the herbicide treatment 20 g ai/ha of S-3100 applied at V2 stage. Additionally, transgenic multi-copy (≥2 copies/plant) were sprayed in the greenhouse with the herbicide treatment 20 g ai/ha of S-3100 applied at V2 stage. Injury ratings were taken at three days after treatment.

[10] = dicamba 2 lbs ae/acre (4×) at V2 fb V4 fb V8
[11] = dicamba 4 lbs (8×) at V2 fb V4 fb V8
[12] = dicamba 8 lbs (16×) at V2 fb V4 fb V8
[13] = dicamba 16 lbs (32×) at V2 fb V4 fb V8

## RbcS (SEQ ID NO: 5): Ps.RbcS-3C chloroplast transit peptide, SEQ ID NO:5 (MASMISSSAVTTVSRASRGQSAAMAPFGGLKSMTGFPVRKVNTDITSITSNGGRVKC; listed as Pisum sativum) [reference compound]
[1]; dicamba 1 lb ae/acre
  2X Tolerant events: 8/9
[1]; dicamba 2 lb ae/acre
  4X Tolerant events: 7/7

## C#CCN1C(=O)COc2cc(F)c(N3C(=O)C4=C(CCCC4)C3=O)cc21 [Flumioxazin, flumioxazin]
[2]; 210 g ai/ha
  % Injury negative control: 30% +/− 6.32
[2]; 420 g ai/ha
  % Injury negative control: 60.8% +/− 6.38
[3]; 210 g ai/ha
  % Injury PPO H_N10: 1.7% +/− 1.05
[3]; 420 g ai/ha
  % Injury PPO H_N10: 2.5% +/− 1.71

## CC(C)N(C)S(=O)(=O)NC(=O)c1cc(-n2c(=O)cc(C(F)(F)F)n(C)c2=O)c(F)cc1Cl [Saflufenacil, saflufenacil]
[2]; 200 g ai/ha
  % Injury negative control: 0% +/− 0
[2]; 400 g ai/ha
  % Injury negative control: 0.8% +/− 0.83
[3]; 200 g ai/ha
  % Injury PPO H_N10: 0% +/− 0
[3]; 400 g ai/ha
  % Injury PPO H_N10: 0.8% +/− 0.83

## Cc1nn(-c2cc(NS(C)(=O)=O)c(Cl)cc2Cl)c(=O)n1C(F)F [Sulfentrazone, sulfentrazone]
[2]; 840 g ai/ha
  % Injury negative control: 17.5% +/− 11.6
[2]; 1680 g ai/ha
  % Injury negative control: 20% +/− 11.11
[3]; 840 g ai/ha
  % Injury PPO H_N10: 0% +/− 0
[3]; 1680 g ai/ha
  % Injury PPO H_N10: 0% +/− 0

## CS(=O)(=O)NC(=O)c1cc(Oc2ccc(C(F)(F)F)cc2Cl)ccc1[N+](=O)[O-] [Fomesafen, fomesafen]
[2]; 840 g ai/ha
  % Injury negative control: 75.8% +/− 5.83
[2]; 1680 g ai/ha
  % Injury negative control: 94.2% +/− 1.54
[3]; 840 g ai/ha
  % Injury PPO H_N10: 4.2% +/− 1.54
[3]; 1680 g ai/ha
  % Injury PPO H_N10: 5.8% +/− 0.83

## CCOC(=O)COc1ncccc1Oc1cc(-n2c(=O)cc(C(F)(F)F)n(C)c2=O)c(F)cc1Cl [S-3100, ethyl [3-2-chloro-4-fluoro-5-(1-methyl-6-trifluoromethyl-2,4-dioxo-1,2,3,4-tetrahydropyrimidin-3-yl)phenoxy]-2-pyridyloxyl acetate]
[2]; 80 g ai/ha, +/− standard error
  % Injury negative control: 19.2% +/− 2.39
[2]; 160 g ai/ha
  % Injury negative control: 20.8% +/− 8.31
[3]; 80 g ai/ha, +/− standard error
  % Injury PPO H_N10: 3.3% +/− 1.67
[3]; 160 g ai/ha
  % Injury PPO H_N10: 4.2% +/− 1.54

B1: APG6-DMO: APG6 CTP operably linked to dicamba monooxygenase (SEQ ID NO:20 in Brassica, SEQ ID NO:18 in maize) (protein)
chain: MLTFVRNAWYVAALPEELSEKPLGRTILDTPLALYRQPDGVVAALLDICPHRFAPLSDGILVNGHLQCPYHGLEFDGGGQCVHNPHGNGARPASLNVRSFPVVERDALIWIWPGDPALADPGAIPDFGCRVDPAYRTVGGYGHVDCNYKLLVDNLMDLGHAQYVHRANAQTDAFDRLEREVIVGDGEIQALMKIPGGTPSVLMAKFLRGANTPVDAWNDIRWNKVSAMLNFIAVAPEGTPKEQSIHSRGTHILTPETEASCHYFFGSSRNFGIDDPEMDGVLRSWQAQALVKEDKVVVEAIERRRAYVEANGIRPAMLSCDEAAVRVSREIEKLEQLEAA
[4]; [10]
  CIPV4 (crop injury percent): 2%
  CIPV8 (crop injury percent): 3%
  Yield: 231.99 bu/ac
[4]; dicamba 2 lbs ae/acre (4×) at V2 fb V4 fb V8, rated ten days after treatment
  CIPV2 (crop injury percent): 0.75%
[4]; [11]
  CIPV2 (crop injury percent): 1.5%
  CIPV4 (crop injury percent): 2%
  CIPV8 (crop injury percent): 7.5%
  Yield: 230.44 bu/ac
[4]; [12]
  CIPV2 (crop injury percent): 1.5%
  CIPV4 (crop injury percent): 4%
  CIPV8 (crop injury percent): 11.25%
  Yield: 242.37 bu/ac
[4]; [13]
  CIPV2 (crop injury percent): 2%
  CIPV4 (crop injury percent): 5.75%
  CIPV8 (crop injury percent): 17.5%
  Yield: 212.34 bu/ac
[5]
  events giving plants with dicamba injury of 20% or less at each of three rating periods: 2
[5]; rated 7 days after each spray
  plants (progeny) with dicamba injury of 20% or less at each of three rating periods: 9

B2: Optimized APG6: amino-terminal optimized variant of the APG6 CTP, SEQ ID NO:2 (protein)
chain: MASSTTTATAAFSGVVSVGTETRRIYSFSHLQPSAAFPAKPSSFKSLKLKQSARLTRRLDHRPFVVRC
[6]
  Dicamba Injury, V4 stage: 2.7%
[7]
  dicamba % Injury, V4 stage: 2.2%

B3: 12G088600TP + H_N10: 12G088600TP CTP operably linked to PPO H_N10, construct for soybean (protein, listed as Gossypium raimondii, listed as Escherichia coli)
chain: MLNIAPSCVLASGISKPVTKMASTENKDDHSSAKRMKTLILFSTRDGQTREIASYLASELKELGIQADVANVHRIEEPQWENYDRVVIGASIRYGHYHSAFQEFVKKHATRLNSMPSAFYSVNLVARKPEKRTPQTNSYARKFLMNSQWRPDRCAVIAGALRYPRYRWYDRFMIKLIMKMSGGETDTRKEVVYTDWEQVANFAREIAHLTDKPTLK
[8]; S-3100 5, 10 and 30 g ai/ha applied at V4
  survival for rating at the R1 stage: did not survive
[8]; S-3100 5 g/ha
  Injury V4 stage: 82.7%
[8]; S-3100 10 g/ha
  Injury V4 stage: 92.7%
[8]; S-3100 30 g/ha
  Injury V4 stage: 98.2%

B4: APG6 + H_N10: APG6 CTP operably linked to PPO H_N10, construct for soybean and cotton (protein, listed as Arabidopsis thalinana, listed as Escherichia coli)
chain: MATATTTATAAFSGVVSVGTETRRIYSFSHLQPSAAFPAKPSSFKSLKLKQSARLTRRLDHRPFVVRCMKTLILFSTRDGQTREIASYLASELKELGIQADVANVHRIEEPQWENYDRVVIGASIRYGHYHSAFQEFVKKHATRLNSMPSAFYSVNLVARKPEKRTPQTNSYARKFLMNSQWRPDRCAVIAGALRYPRYRWYDRFMIKLIMKMSGGETDTRKEVVYTDWEQVANFAREIAHLTDKPTLK
[8]; S-3100 5 g/ha
  Injury R1 stage: 3%
  Injury V4 stage: 4.2%
[8]; S-3100 10 g/ha
  Injury R1 stage: 6.5%
  Injury V4 stage: 7.8%
[8]; S-3100 30 g/ha
  Injury R1 stage: 15.7%
  Injury V4 stage: 9.4%
[9]; 14 multi-copy R0 cotton plants
  average injury: 10.4%
[9]; 21 single-copy R0 cotton plants
  average injury: 26.7%
